According to patent US20190365920A1 (INSERM INSTITUT NATIONAL DE LA SANT ET DE LA RECHERCHE …, published 2019):

Target: T1, SLITRK6 (SLIT and NTRK-like family, member 6) (human, UniProt Q9H5Y7 27-841)
T1 construct: whole, on cells; Endogenous SLITRK6 at the membrane of A375 BRAF-mutant melanoma cells after treatment with PLX4032, alone or with AZD6244; also called DFNMYP
T1 sequence (looked up): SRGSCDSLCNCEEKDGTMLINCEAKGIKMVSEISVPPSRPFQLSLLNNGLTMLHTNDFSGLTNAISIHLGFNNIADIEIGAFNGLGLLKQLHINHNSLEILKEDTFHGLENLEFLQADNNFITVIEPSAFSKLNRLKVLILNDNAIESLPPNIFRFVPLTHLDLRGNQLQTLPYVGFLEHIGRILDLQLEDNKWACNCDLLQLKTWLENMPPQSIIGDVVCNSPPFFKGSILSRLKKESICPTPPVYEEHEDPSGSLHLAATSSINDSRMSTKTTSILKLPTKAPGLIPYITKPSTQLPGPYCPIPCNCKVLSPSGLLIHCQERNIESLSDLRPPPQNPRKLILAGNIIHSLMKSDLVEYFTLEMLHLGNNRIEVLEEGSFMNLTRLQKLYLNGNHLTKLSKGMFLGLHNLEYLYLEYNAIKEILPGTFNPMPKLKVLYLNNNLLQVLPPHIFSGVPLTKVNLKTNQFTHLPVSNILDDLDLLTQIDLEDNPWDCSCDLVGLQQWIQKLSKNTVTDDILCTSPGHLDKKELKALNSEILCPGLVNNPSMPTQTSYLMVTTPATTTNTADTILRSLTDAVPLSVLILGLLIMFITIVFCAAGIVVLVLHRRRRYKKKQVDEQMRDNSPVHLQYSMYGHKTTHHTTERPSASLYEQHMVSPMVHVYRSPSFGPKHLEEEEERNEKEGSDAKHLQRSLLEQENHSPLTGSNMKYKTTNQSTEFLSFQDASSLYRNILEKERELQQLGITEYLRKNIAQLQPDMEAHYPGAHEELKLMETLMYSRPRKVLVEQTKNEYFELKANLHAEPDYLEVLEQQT
Assay: immunofluorescence staining of A375 cells (si-Ctl or si-SLITRK6) treated with PLX4032 alone or with AZD6244

binding result: binds
B1: Hal5-10acl2 antibody directed against SLITRK6 (antibody, V domains shown)
VH: QVQLVESGGGVVQPGRSLRLSCAASGFTFSSYGMHWVRQAPGKGLEWVAVIWYDGSNQYYADSVKGRFTISRDNSKNTLFLQMHSLRAEDTAVYYCARGLTSGRYGMDVWGQGTTVTVSS
VL: DIVMTQSPLSLPVTPGEPASISCRSSQSLLLSHGFNYLDWYLQKPGQSPQLLIYLGSSRASGVPDRFSGSGSGTDFTLKISRVEAEDVGLYYCMQPLQIPWTFGQGTKVEIKR
notes: It is produced by a CHO cell deposited as ATCC PTA-13102; also called HA15-10acl2; the antibody against SLITRK6
